No end group written: not given here.
Target: T1, cell surface antigen PSMA on Lncap cell line with high PSMA expression (UniProt Q04609 1-750, limits assumed)
T1 construct: whole, on cells; Lncap is a prostate cancer cell line; also called Lncap cells
Experiment: immunofluorescence on Lncap cells (high PSMA expression), FITC marker
Experimental: Immunofluorescence detection was performed on KHL peptides in Lncap cell lines with high PSMA expression and PC3 cell lines with low PSMA expression, using FITC as the fluorescent marker.

T1 sequence (Q04609 whole entry): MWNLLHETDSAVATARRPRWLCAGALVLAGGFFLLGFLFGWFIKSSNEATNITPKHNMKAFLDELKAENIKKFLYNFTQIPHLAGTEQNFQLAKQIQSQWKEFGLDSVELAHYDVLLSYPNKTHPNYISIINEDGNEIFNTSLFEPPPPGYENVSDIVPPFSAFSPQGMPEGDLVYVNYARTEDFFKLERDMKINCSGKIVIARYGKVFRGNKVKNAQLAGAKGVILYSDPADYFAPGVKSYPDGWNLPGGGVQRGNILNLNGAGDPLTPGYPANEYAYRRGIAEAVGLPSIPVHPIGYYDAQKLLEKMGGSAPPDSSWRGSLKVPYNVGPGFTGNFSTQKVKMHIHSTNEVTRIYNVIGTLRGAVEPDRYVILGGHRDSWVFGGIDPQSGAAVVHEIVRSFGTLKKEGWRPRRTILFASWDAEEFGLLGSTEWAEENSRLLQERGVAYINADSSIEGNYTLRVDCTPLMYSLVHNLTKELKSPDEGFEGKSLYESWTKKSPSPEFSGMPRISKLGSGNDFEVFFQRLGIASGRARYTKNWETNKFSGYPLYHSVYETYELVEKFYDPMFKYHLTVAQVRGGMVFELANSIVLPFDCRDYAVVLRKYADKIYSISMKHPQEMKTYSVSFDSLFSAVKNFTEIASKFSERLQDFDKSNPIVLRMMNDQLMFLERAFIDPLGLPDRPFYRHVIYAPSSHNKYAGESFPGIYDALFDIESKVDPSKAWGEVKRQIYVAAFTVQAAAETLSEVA

Binder: KHLHYHSSVRYG (also: FITC label, attachment site not given here, also called KHL peptide conjugate) [KHL peptide with FITC as the fluorescent marker]
- binding result: binds
